Several values for one entry are separate records, joined by “and”; a condition that tells them apart may be missing. Equal entries are not always repeated.
Target: trypsin
Assay: cell-based or functional assay

inhibition of trypsin hydrolysis of P-toluenesulphonyl-L-arginine methyl ester (TAME): 5 µg and 10 µg
Substance: inter-alpha trypsin inhibitor (ITI), native complex of light chain and heavy chain, affinity purified from human serum (from UniProt P19823 55-702)

Source: US6489128
